In assay [1] the target is T1, human BUB1A kinase (human, UniProt O60566 1-1050, hyperphosphorylated in mitotically arrested cells (P-ser and P-thr the major phosphoamino acids; positions not given)).
T1 construct: Endogenous huBUB1A immunoprecipitated or blotted from Hela lysates; also called huBUB1A; hUBUB1A
The assay can be described thus: specificity test, method not named in the sentence (probably yeast two-hybrid).

Assay [2] addresses T2, CENP-E (human, UniProt Q02224 1-2698, limits assumed).
T2 construct: Endogenous Hela protein in the immunoprecipitations; also called CENP-E kinetochore motor; endogenous CENP-E
The description is as above.

T1 sequence (O60566 whole entry R349Q/E1018K): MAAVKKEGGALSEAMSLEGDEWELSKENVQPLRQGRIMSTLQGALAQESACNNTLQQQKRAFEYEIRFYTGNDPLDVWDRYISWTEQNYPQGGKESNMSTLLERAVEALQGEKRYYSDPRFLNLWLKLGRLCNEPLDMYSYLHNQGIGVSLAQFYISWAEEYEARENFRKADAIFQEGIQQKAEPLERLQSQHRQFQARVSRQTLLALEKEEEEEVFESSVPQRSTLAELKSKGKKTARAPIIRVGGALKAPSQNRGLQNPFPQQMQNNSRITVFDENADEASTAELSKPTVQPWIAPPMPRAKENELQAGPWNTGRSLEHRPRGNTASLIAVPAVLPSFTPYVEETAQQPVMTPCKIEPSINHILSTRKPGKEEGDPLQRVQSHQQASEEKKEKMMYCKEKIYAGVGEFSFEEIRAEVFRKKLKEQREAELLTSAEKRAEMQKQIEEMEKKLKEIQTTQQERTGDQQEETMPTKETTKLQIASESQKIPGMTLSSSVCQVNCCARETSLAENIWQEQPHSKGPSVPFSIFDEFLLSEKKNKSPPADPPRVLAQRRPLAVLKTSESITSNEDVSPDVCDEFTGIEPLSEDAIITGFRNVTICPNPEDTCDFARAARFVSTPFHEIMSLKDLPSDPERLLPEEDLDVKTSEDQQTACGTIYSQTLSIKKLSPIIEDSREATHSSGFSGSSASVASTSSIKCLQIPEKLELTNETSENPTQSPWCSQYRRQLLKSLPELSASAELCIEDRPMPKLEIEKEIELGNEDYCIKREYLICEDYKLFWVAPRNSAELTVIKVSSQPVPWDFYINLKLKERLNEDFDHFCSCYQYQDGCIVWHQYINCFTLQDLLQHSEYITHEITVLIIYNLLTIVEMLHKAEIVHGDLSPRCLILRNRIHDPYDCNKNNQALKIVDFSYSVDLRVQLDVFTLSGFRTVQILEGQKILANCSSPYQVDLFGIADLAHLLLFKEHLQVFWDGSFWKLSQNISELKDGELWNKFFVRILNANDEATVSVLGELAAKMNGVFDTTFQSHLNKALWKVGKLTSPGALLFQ
T2 sequence (Q02224 1-2698 limits assumed): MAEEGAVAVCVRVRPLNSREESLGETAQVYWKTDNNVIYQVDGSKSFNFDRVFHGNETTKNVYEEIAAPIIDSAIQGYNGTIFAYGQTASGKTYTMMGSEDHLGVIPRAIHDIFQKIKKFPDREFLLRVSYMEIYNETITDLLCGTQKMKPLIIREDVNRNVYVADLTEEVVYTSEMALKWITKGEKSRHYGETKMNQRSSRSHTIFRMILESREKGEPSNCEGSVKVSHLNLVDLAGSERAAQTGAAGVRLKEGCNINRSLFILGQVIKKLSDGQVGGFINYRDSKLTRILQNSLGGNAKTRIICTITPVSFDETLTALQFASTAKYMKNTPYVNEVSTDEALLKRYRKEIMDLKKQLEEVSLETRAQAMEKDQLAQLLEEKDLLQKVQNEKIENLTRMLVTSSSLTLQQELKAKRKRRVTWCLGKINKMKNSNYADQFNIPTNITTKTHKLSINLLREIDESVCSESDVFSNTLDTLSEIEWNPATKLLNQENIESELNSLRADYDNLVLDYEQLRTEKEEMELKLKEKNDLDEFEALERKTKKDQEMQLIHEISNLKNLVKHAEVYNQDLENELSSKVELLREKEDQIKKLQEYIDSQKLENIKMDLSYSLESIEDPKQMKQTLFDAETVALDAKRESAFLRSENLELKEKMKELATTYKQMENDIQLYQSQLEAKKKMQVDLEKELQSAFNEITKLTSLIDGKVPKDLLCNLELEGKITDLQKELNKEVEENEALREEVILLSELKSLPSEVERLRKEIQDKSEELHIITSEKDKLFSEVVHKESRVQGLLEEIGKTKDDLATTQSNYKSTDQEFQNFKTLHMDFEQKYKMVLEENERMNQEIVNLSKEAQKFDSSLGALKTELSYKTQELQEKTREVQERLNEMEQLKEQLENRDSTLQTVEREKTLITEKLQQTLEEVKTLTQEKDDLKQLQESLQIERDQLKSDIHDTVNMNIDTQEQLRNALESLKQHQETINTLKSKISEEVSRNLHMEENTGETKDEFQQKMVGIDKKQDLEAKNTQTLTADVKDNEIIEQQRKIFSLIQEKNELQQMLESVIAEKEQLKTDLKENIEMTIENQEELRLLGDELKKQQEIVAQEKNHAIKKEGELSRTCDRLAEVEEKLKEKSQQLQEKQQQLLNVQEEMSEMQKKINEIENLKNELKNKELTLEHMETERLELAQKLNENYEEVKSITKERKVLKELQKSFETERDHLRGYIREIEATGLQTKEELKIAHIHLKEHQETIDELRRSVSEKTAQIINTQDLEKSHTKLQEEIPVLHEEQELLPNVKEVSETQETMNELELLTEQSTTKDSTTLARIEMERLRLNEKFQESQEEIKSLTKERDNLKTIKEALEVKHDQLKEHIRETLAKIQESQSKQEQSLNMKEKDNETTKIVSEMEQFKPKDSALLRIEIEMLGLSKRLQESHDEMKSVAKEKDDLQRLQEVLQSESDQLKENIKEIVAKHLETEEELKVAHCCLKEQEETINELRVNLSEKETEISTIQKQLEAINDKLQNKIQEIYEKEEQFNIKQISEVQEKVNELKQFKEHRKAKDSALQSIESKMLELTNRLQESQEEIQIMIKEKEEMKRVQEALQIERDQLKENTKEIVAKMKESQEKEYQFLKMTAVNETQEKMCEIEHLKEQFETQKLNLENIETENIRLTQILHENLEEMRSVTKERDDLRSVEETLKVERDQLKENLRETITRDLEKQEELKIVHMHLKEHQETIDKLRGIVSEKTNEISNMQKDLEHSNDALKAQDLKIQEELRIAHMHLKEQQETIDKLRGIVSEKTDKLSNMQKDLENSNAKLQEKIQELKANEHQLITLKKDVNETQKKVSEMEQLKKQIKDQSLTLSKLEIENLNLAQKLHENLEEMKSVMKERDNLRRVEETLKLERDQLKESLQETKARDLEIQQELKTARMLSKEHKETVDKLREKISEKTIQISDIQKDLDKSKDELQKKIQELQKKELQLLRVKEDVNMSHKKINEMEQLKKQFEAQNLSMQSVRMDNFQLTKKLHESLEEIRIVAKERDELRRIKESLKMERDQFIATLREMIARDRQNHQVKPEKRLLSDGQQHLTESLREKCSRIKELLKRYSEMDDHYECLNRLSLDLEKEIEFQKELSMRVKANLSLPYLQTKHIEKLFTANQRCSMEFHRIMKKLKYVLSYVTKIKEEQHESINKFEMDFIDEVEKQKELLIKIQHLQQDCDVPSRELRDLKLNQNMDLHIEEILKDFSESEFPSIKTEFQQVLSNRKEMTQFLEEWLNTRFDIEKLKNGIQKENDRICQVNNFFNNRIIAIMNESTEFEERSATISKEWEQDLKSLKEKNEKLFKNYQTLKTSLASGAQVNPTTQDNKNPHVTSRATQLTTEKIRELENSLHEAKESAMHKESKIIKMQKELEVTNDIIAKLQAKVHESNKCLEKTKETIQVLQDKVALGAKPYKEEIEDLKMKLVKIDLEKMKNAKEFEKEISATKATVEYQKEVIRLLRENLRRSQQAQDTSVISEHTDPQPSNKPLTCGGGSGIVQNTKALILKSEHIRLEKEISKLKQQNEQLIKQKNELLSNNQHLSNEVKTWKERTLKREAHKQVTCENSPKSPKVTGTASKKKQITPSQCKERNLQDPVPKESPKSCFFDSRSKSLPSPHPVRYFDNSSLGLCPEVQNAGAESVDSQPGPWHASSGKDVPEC

B1: CENP-F (other, UniProt P49454 2542-3114, looked up)
chain: SQVEGEHQLWKEQNLELRNLTVELEQKIQVLQSKNASLQDTLEVLQSSYKNLENELELTKMDKMSFVEKVNKMTAKETELQREMHEMAQKTAELQEELSGEKNRLAGELQLLLEEIKSSKDQLKELTLENSELKKSLDCMHKDQVEKEGKVREEIAEYQLRLHEAEKKHQALLLDTNKQYEVEIQTYREKLTSKEECLSSQKLEIDLLKSSKEELNNSLKATTQILEELKKTKMDNLKYVNQLKKENERAQGKMKLLIKSCKQLEEEKEILQKELSQLQAAQEKQKTGTVMDTKVDELTTEIKELKETLEEKTKEADEYLDKYCSLLISHEKLEKAKEMLETQVAHLCSQQSKQDSRGSPLLGPVVPGPSPIPSVTEKRLSSGQNKASGKRQRSSGIWENGRGPTPATPESFSKKSKKAVMSGIHPAEDTEGTEFEPEGLPEVVKKGFADIPTGKTSPYILRRTTMATRTSPRLAAQKLALSPLSLGKENLAESSKPTAGGSRSQKVKVAQRSPVDSGTILREPTTKSVPVNNLPERSPTDSPREGLRVKRGRLVPSPKAGLESNGSENCKVQ
Consider B1, for which the binding result in assay [1] is on record as “no binding”.

B2: human BUB1B kinase (enzyme)
chain: MDTPENVLQMLEAHMQSYKGNDPLGEWERYIQWVEENFPENKEYLITLLEHLMKEFLDKKKYHNDPRFISYCLKFAEYNSDLHQFFEFLYNHGIGTLSSPLYIAWAGHLEAQGELQHASAVLQRGIQNQAEPREFLQQQYRLFQTRLTETHLPAQARTSEPLHNVQVLNQMITSKSNPGNNMACISKNQGSELSGVISSACDKESNMERRVITISKSEYSVHSSLASKVDVEQVVMYCKEKLIRGESEFSFEELRAQKYNQRRKHEQWVNEDRHYMKRKEANAFEEQLLKQKMDELHKKLHQVVETSHEDLPASQERSEVNPARMGPSVGSQQELRAPCLPVTYQQTPVNMEKNPREAPPVVPPLANAISAALVSPATSQSIAPPVPLKAQTVTDSMFAVASKDAGCVNKSTHEFKPQSGAEIKEGCETHKVANTSSFHTTPNTSLGMVQATPSKVQPSPTVHTKEALGFIMNMFQAPTLPDISDDKDEWQSLDQNEDAFEAQFQKNVRSSGAWGVNKIISSLSSAFHVFEDGNKENYGLPQPKNKPTGARTFGERSVSRLPSKPKEEVPHAEEFLDDSTVWGIRCNKTLAPSPKSPGDFTSAAQLASTPFHKLPVESVHILEDKENVVAKQCTQATLDSCEENMVVPSRDGKFSPIQEKSPKQALSSHMYSASLLRLSQPAAGGVLTCEAELGVEACRLTDTDAAIAEDPPGSAAIAEDPPDAIAGLQAEWMQMSSLGTVDAPNFIVGNPWDDKLIFKLLSGLSKPVSSYPNTFEWQCKLPAIKPKTEFQLGSKLVYVHHLLGEGAFAQVYEATQGDLNDAKNKQKFVLKVQKPANPWEFYIGTQLMERLKPSMQHMFMKFYSAHLFQNGSVLVGELYSYGTLLNAINLYKNTPEKVMPQGLVISFAMRMLYMIEQVHDCEIIHGDIKPDNFILGNGFLEQDDEDDLSAGLALIDLGQSIDMKLFPKGTIFTAKCETSGFQCVEMLSNKPWNYQIDYFGVAATVYCMLFGTYMKVKNEGGECKPEGLFRRLPHLDMWNEFFHVMLNIPDCHHLPSLDLLRQKLKKVFQQHYTNKIRALRNRLIVLLLECKRSRK
notes: Endogenous protein in the immunoprecipitations; also called huBUB1B
For B2, the binding result in assay [2] was “no binding”.

For the origin of these results see patent publication US6593098 (FOX CHASE CANCER CENTER, dated 2003).
